Reference: paper doi:10.1101/2020.10.14.340026 (bioRxiv, 2020)

Columns and labels:
EBOV sGP (Mayinga) = target: T1, EBOV sGP (Mayinga) (Zaire ebolavirus (strain Mayinga-76) …, UniProt P60170); assay: ELISA; conditions: both partners purified
T1 construct: source: HEK-293F, transiently transfected, purified (Strep-Tactin, SEC S200 increase)

[1] = target: Cleaved EBOV GP (GPCL) displayed on Jurkat cells (Zaire ebolavirus, Makona (A0A0E3TM45), UniProt A0A0E3TM45, strain); assay: flow cytometry on cells; conditions: one partner purified

Row | Binder | binding result (EBOV sGP (Mayinga)) | binding result [1]
1 | EBOV-548 mAb (antibody, V domains shown) VH: QVQVEESGGGVVQPGGSLRLSCAASGFMFSNYGMHWVRQAPGKGLEWMAFIRYDDSKKFYADSVKGRFTISRDNSKNTLYLQMNSLRAEDTALYYCAKELLQVYTSAWGEGHSYYYALDVWGLGTAVTVSS VL: DIQMTQSPSSVSASVGDRVTITCRASQDISNWLAWYQQKPGKAPELLIYTASILQSGVSSRFSGSGSGTDFTLTISSLQPEDSATYYCQQGKSFPYTFGQGTKLEIK | binds | 
2 | EBOV-437 mAb (antibody, V domains shown, IgG1; source: ExpiCHO, transiently transfected, purified (HiTrap MabSelect Sure)) VH: QVQLVQSGAEVKKPGSSVKVSCKASGGTFSRDIFSWVRQAPGQGLEWMGGIIPIFGTANYAQKFQGRVTITADKSTSTVFMELSGLRSEDTAVYFCARGPPLRGERSWFGESEKYDYFYMDVWGKGTTVTVSS VL: QIVLTQSPGTLSLSPGERATLSCRASQSVSNSYLAWYQQKPGQAPRLLIYGASSRATGIPDRFSGSGSGTDFTLSISRLEPEDFAVYYCQQYGTSPCTFGQGTKLEIK | binds | 
3 | BDBV-329 mAb (antibody, V domains shown, IgG1; source: ExpiCHO, transiently transfected, purified (HiTrap MabSelect Sure)) VH: QVQLVQSGAEVKKPGSSVKVSCKASGGTFDTYAISWVRQAPGQGLEWMGGIIPVLGIVDYAQKFQGRVTITAAKFTNIAYMELSSLRSEDAAVYYCARGLRSLSPRGQEGPTPAPGWRRAQYHYYYMDVWGTGTLVTVSS VL: EIVMTQSPGTLSLSPGERATLSCRASQSVSSNYLAWYQQKPGQAPRLLIYGASSRATGIPDRFSGSGSGPDFTLTISRLEPEDFAVYYCQQYGSSPGTFGGGTKVEIK | binds | 
4 | EBOV-296 mAb (antibody, V domains shown) VH: QVQLVESGPGLVKPSQTLSLICTVSGGSISSGDFYWSWIRQPPGKGLEWIGFFYYSGITYYNPSLKSRVSISRDTSTNQFSLKLRSVTAADTAVYYCARVRGGRITLGQGDMYYYSGMDVWGQGTLVTVSS VL: not shown | binds | 
5 | BDBV-43 mAb (antibody, V domains shown, source: HEK-293F, transiently transfected, purified (mAb Select, SEC)) VH: QVQLVQSGAEVKKPGSSVKVSCRASGDSFSRKYGISWVRQAPGQGFEWMGTIMPIVGLTTSAQKFQGRVTITADKSTSTAHMELNSLTSEDTAIYYCARDEIIGARPHWFDSWGQGTLVTVSS VL: EIVMTQSPAIMSVSPGKRATLSCRASQSVSSNLAWYQRKPGQAPRLLIYGSSTRATGIPARFSGSGSGTEFTLTISSLQSEDFAVYYCLQYYNWPRTFGQGTKVEIK | binds | 
6 | BDBV-289 mAb (antibody, V domains shown, source: HEK-293F, transiently transfected, purified (mAb Select, SEC)) VH: QVQLVQSGAEVKKPGSSVKVSCKASGATFGSDTVTWVRQAPGQGLEWMGGIIPFFGEANYAQRFQGRVTITADKSTNTAYMELSSLRSEDTAVYFCARQINEMATFGEIHYYTYMDVWGQGTLVTVSS VL: GSELTQDPAVSVALGQTVRITCQGDSLRNYYASWYQQKPRQAPVLVFYGKNNRPSGIPDRFSGSSSGNTASLTISGAQAEDEADYYCNSRDSSSNHLVFGGGTKLTVL | binds | 
7 | EBOV-293 mAb (antibody, V domains shown) VH: QVQLVQSGAEVKKPGSSVKVSCKASGGTFIDYTYNWVRQAPGQGLVWMGRVVPGLGLSSYAQQFEDRVTITAAKSTSTVYMELRGLTSEDTAMYYCARDTASFGWLPFAFWGQGTLVTVSS VL: QTVMTQSPGTLSLSPGERATLSCGVSQSISSTYFAWYQQKVGQAPRLLIYGASNRASGIPDRFSGSASGTDFTLTISRVEPEDFAVYYCQQYGSSPTFGQGTRLEIK | binds | 
8 | EBOV-442 mAb (antibody, V domains shown, IgG1; source: ExpiCHO, transiently transfected, purified (HiTrap MabSelect Sure)) VH: EVQLVESGGGLVKPGGSLRLSCTGSGGTGFTFKYAGMSWVRQAPGKGPEWIGRIKSRIDGGTTDYAAPVKDRFIVSRDDSRNTLYLQMNSLKTEDTAVYYCATGSGKGPSASFGESYYYYDFINVWGKGTTVTVSS VL: ESVLTQSPGTLSLSPGERATLSCRASQSISRKYLAWYQQKPGQAPRLLIYGSSSRATGIPDRFSGSGSGTDFTLTISRLEPEDFAVYYCHQYESSPWTFGQGTKVEIK | binds | binds
9 | EBOV-237 mAb (antibody, V domains shown, IgG1; source: ExpiCHO, transiently transfected, purified (HiTrap MabSelect Sure)) VH: QVQLQESGPGLVKPSGTLSLTCAVSGGSISNGIWWSWVRQPPGKGLEWIGEIYHSGSTNYSPSLKSRVTISLDKSKNQFSLKLNSVTAADTAVYYCARAPSQFDFSDWLVPQGAMFRGHYIDYWGQGTLVTVSS VL: not shown | binds | 
10 | EBOV-515 mAb, Alexa Fluor 647-labeled (antibody, V domains shown) VH: QVQLQESGPGLVKPSQTLSLTCTVSGGSINSAGYYWTWIRQHPGKGLEWIGYIDYTGRTYYNPSLESRVIISIDTSKNHFSLRLTSVSAADTAVYYCARESSWVSELGRDNWGQGTLVTVSS VL: EIVMTQSPATLPVSPGEGATLSCRASQSVFTNLAWYQQKPGQAPRLLIYDASTRATGIPARFSGSGSGTEFTLTISSLQSEDFAVYYCQQYNNWPRTYGQGTRVEVK |  | binds
